In patent US20070243589A1 (Pfizer, published 2007):

T1: biotinylated IL-22 with an N-terminal His/FLAG tag (bio.IL-22H/F) (human, UniProt Q9GZX6 34-179, biotinylated (site not stated))
T1 construct: not shown: N-terminal His/FLAG tag
T1 sequence: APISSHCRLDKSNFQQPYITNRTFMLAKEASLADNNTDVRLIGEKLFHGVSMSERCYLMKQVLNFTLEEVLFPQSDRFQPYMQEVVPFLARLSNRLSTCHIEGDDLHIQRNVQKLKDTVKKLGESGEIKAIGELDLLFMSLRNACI

B1: GIL60 scFv, fully germlined (scFv)
scFv: EVQLVESGGGVVRPGGSLRLSCAASGFTFDDYGMNWVRQAPGKGLEWVSGVNWNGGTRDYAASVKGRFTISRDNAKNSLYLQMNSLRAEDTALYHCARGWYSGSFYYFGYWGRGTLVTVSSGGGGSGGGGSGGGGSAQAALTQPASVSGSPGQSITISCTGASGDVGAYNFVSWYQQHPGKAPKLIIYDVNKRPSGVSNRFSGSKSGNTASLTISGLQAEDEADYYCSSYTSTFSVVFGGGTKLTVLGA
B2: GIL92 scFv, fully germlined (scFv)
scFv: QVQLVQSGAEVKKPGASVKVSCKASGYTFTDYYMHWVRQAPGQGLEWVGWINPYTGGAFYAQKFRGRVTMTRDTSISTAYMELSRLRSDDTAVYYCAREPEKFDFWGGDNWGRGTLVTVSSGGGGSGGGGSGGGGSAQAVLTQPPSVSGAPGQRVTISCTGSSSNIGAGYGVHWYQQLPGTAPKLLIYGNSNRPSGVPDRFSGSKSGTSASLAITGLQAEDEADYYCQSYDSSLSGYVFGGGTQLTVLSA
B3: GIL01 scFv, fully germlined (scFv)
scFv: QVQLVESGGGLVKPGGSLRLSCAASGFTFSDYYMSWIRQAPGKGLEWVSAISGSGGSTYYADSVKGRITISRDNAKNSLYLQMNSLRAEDTAVYYCARGLWVWDPLDYWGRGTLVTVSSGGGGSGGGGSGGGGSDIQMTQSPSTLSASVGDRVTITCRASEGIYHWLAWYQQKPGKAPKLLIYKASSLASGVPSRFSGSGSGTDFTLTISSLQPDDFATYYCQQYSNYPLTFGGGTKVEIKRA
B4: GIL16 scFv, fully germlined (scFv)
scFv: QVQLVQSGAEVKKPGASVKVSCKASGYTFTSYGISWVRQAPGQGLEWMGWISAYTGNTNYAQKFQGRVTMTTDTSTSTAYMELRSLRSDDTAVYYCARDRGYYDAFDIWGQGTLVTVSSGGGGSGGGGSGGGGSDIQMTQSPSTLSASVGDRVTITCRASEGIYHWLAWYQQKPGKAPKLLIYKASSLASGVPSRFSGSGSGTEFTLTISSLQPDDFATYYCQQYSNYPLTFGGGTKVEIKRA
B5: GIL68 scFv, fully germlined (scFv)
scFv: QVQLVQSGAEVKKPGASVKVSCKASGYTFSDYYIHWVRQAPGQGLEWMGWVNPDTGGTRYAQKFQGRVTMTRDMSISTAYMELSRLRSDDTAVYYCARDLTGFDPFDIWGQGTLVTVSSGGGGSGGGGSGGGGSASSVLTQPPSVSVAPGKTARITCGGNNFRNKRVHWYQQKPGQAPVLVIYYDSDRPSGIPERFSGSRSGNTATLTISRVEAGDEADYYCQVWDSSTDRPLFGGGTKLTVLGA
B6: GIL01 IgG (non-germlined parent) (antibody, V domains shown)
VH: EVQLVESGGGLVTPGGSLRLSCAASGFTFSDYYMSWIRQAPGRGLEWVSAISGSGGSTYYADSVKGRITISRDNAKNSLYLQMSSLRSEDTAVYYCARGLWVWDPLDYWGRGTLVTVSS
VL: DIQMTQSPSTLSASIGDRVTITCRASEGIYHWLAWYQQKPGKAPKLLIYKASSLASGAPSRFSGSGSGTDFTLTISSLQPDDFATYYCQQYSNYPLTFGGGTKLEIKR
notes: Human IgG4 heavy chain constant domain
B7: GIL16 IgG (non-germlined parent) (antibody, V domains shown)
VH: QVQLVESGAEVKKPGASVKVSCKASGYTFTSYGISWVRQAPGQGLEWMGWISAYTGNTNYAQKFQGRVTMTTDTSTSTAYMELRSLRSDDTAVYYCARDRGYYDAFDIWGQGTLVTVSS
VL: B6 VL
notes: as for B6
B8: GIL45 IgG (non-germlined parent) (antibody, V domains shown)
VH: QMQLVQSGGGVVQPGRSLRLSCAASGFTFSNYGMYWVRQAPGKGLEWVAHIWYDGSNEKYADSVKGRMTVSRDNSRNTLYLQMNSLRAEDTAVYYCATEQHWITAFDIWGKGTLVTVSS
VL: QSVLTQPASVSGSPGQSITISCTGTSSDVGGYNYVSWYQQHPGKAPKLMIYEGSKRPSGVSNRFSGSKSGNTASLTISGLQAEDEADYYCSSYTTRSTRVFGGGTKLTVLG
notes: as for B6
B9: GIL60 IgG (non-germlined parent) (antibody, V domains shown)
VH: EVQLVESGGGVVRPGGSLRLSCAASGFTFDDYGMNWVRQAPGKGLEWVSGVNWNGGTRDYAASVKGRFTISRDNAKNSLYLQMNSLRAEDTALYYCARGWYSGSFYYFGYWGRGTLVTVSS
VL: QAVLTQPSSVSGSPGQSITISCTGASGDVGAYNFVSWYQQHPGKTPKLIIYDVNKRPSGVSNRFSGSKSGNTASLTISGLQAEDESDYYCSSYTSTFSVVFGGGTKVTVLG
notes: as for B6
B10: GIL60 scFv (non-germlined parent) (scFv)
scFv: EVQLVESGGGVVRPGGSLRLSCAASGFTFDDYGMNWVRQAPGKGLEWVSGVNGNGGTRDYAASVKGRFTISRDNAKNSLYLQMNSLRAEDTALYYCARGWYSGSFYYFGYWGRGTLVTVSSGGGGSGGGGSGGGGSAQAVLTQPSSVSGSPGQSITISCTGASGDVGAYNFVSWYQQHPGKTPKLIIYDVNKRPSGVSNRFSGSKSGNTASLTISGLQAEDESDYYCSSYTSTFSVVFGGGTKVTVLGAA
B11: GIL01 scFv (non-germlined parent) (scFv)
scFv: EVQLVESGGGLVTPGGSLRLSCAASGFTFSDYYMSWIRQAPGRGLEWVSAISGSGGSTYYADSVKGRITISRDNAKNSLYLQMSSLRSEDTAVYYCARGLWVWDPLDYWGRGTLVTVSSGGGGSGGGGSGGGGSDIQMTQSPSTLSASIGDRVTITCRASEGIYHWLAWYQQKPGKAPKLLIYKASSLASGAPSRFSGSGSGTDFTLTISSLQPDDFATYYCQQYSNYPLTFGGGTKLEIKRAAA
notes: also called GIL 1
B12: GIL92 scFv (non-germlined parent) (scFv)
scFv: QVQLVQSGAEVKKPGASVKVSCKASGYTFTDYYMHWVRQAPGQGLEWVGWINPYTGGAFYAQKFRGRVTMTRDTSINTAYMELSRLGSDDTAVYYCAREPEKFDFWGGDNWGRGTMVTVSSGGGGSGGGGSGGGGSAQAVLTQPSSVSGAPGQRVTISCTGSSSNIGAGYGVHWYQQLPGTAPKLLIYGNSNRPSGVPDRFSGSKSGTSASLAITGLQAEDEADYYCQSYDSSLSGYVFGTGTQLTVLSAAA
B13: GIL16 scFv (non-germlined parent) (scFv)
scFv: QVQLVESGAEVKKPGASVKVSCKASGYTFTSYGISWVRQAPGQGLEWMGWISAYTGNTNYAQKFQGRVTMTTDTSTSTAYMELRSLRSDDTAVYYCARDRGYYDAFDIWGQGTLVTVSSGGGGSGGGGSGGGGSDIQMTQSPSTLSASIGDRVTITCRASEGIYHWLAWYQQKPGKAPKLLIYKASSLASGAPSRFSGSGSGTDFTLTISSLQPDDFATYYCQQYSNYPLTFGGGTKLEIKRAAA

Biological target: T1, biotinylated IL-22 with an N-terminal …
Experiment: biotinylated IL-22 binding IL-22 receptor complex competition assay, purified scFv, fully germlined
Experimental: (§1) Microtiter plates were coated with an IL-22 receptor complex antibody (1 μg/ml in PBS), and incubated for 1.5 hours at room temperature. Plates were washed three times in PBST, and blocked for 1 hour at room temperature with 2% MPBS. After a further 3 washes, diluted cell conditioned medium containing an IL-22 receptor complex was added and incubated overnight at 4° C. Crude scFv supernatants were prepared as described above. The following day, 25 μl of diluted scFv sample and 25 μl of bio.IL-22H/F (6 ng/ml) were added to the washed plates, and incubated for 1.5 hours at room temperature. Plates were washed 3 times in PBST, then binding of bio.IL-22H/F to the IL-22 receptor complex was detected with Europium-Streptavidin and the DELFIA® reagent kit (PerkinElmer). Time Resolved Fluorescence was measured using a Victor 2™ Plate Reader (Perkin Elmer).
(§2) Sequence data for the six parent clones was used to identify the nearest germline sequence for the heavy and light chain of each clone. Appropriate mutations were made using standard site directed mutagenesis techniques with the appropriate mutagenic primers. Mutation of sequences was confirmed by sequence analysis. Purified scFv from the germlined parent clones were tested in the biotinylated IL-22 binding IL-22 receptor complex competition assay as described earlier, in order to establish the clone potency as measured by IC₅₀ values in the assay.

| IC50 [µM] | Binder |
| --- | --- |
| 0.082 | B1 |
| 0.04 | B2 |
| 0.143 | B3 |
| 0.038 | B4 |
| 0.014 | B5 |

Biological target: T1, biotinylated IL-22 with an N-terminal …
Experiment: IL-22 receptor complex inhibition assay (bio.IL-22H/F binding to IL-22 receptor complex, DELFIA), IgG
Experimental: Potency of purified IgG was verified in the biochemical IL-22 receptor complex inhibition assay as described below. IgG concentrations were titrated in order to obtain potency values.
as §1

| IC50 [µM] | Binder |
| --- | --- |
| 0.013 | B6 |
| 0.01 | B7 |
| 0.18 | B8 |
| 0.015 | B9 |

Biological target: T1, biotinylated IL-22 with an N-terminal …
Experiment: DELFIA competition assay: scFv titrated against bio.IL-22H/F binding to the captured IL-22 receptor complex
Experimental: as §1
Purified scFv from positive clones identified from the screening were tested in the DELFIA® IL-22 receptor complex competition assay as described above. A titration of scFv concentrations was used in order to establish the clone potency as measured by IC₅₀ values in the assay. Fourteen optimized clones were designated 097D09, 062A09, 062G05, 087B03, 367D04, 368D04, 166B06, 166G05, 375G06, 376B10, 354A08, 355B06, 355E04, and 356A11.

| IC50 [µM] | Binder |
| --- | --- |
| 0.0308 | B10 |
| 0.129 | B11 |
| 0.0153 | B12 |
| 0.0259 | B13 |

Biological target: T1, biotinylated IL-22 with an N-terminal …
Experiment: biotinylated IL-22 binding IL-22 receptor complex competition assay, purified scFv, parent
Experimental: as §1, §2

| IC50 [µM] | Binder |
| --- | --- |
| 0.051 | B10 |
| 0.124 | B11 |
| 0.018 | B12 |
| 0.044 | B13 |

Biological target: T1, biotinylated IL-22 with an N-terminal …
Experiment: IL-22 receptor complex inhibition assay (bio.IL-22H/F binding to IL-22 receptor complex, DELFIA), scFv
Experimental: (§3) Both the IL-22/IL-22R binding assay (described above) and the IL-22/IL-22 receptor complex assay (described below) were used. ScFv concentrations were titrated in order to establish the clone potencies as measured by assay IC₅₀ values. These were determined using GraphPad Prism software and four-parameter logistic equation curve fitting.
as §1

| IC50 [µM] | Binder |
| --- | --- |
| 0.043 | B10 |
| 0.104 | B11 |
| 0.016 | B12 |
| 0.049 | B13 |

Biological target: T1, biotinylated IL-22 with an N-terminal …
Experiment: DELFIA competition assay: scFv titrated against bio.IL-22H/F binding to the captured IL-22 receptor complex
Remark: another data set of the same source
Experimental: as §3, §1

| IC50 [µM] | Binder |
| --- | --- |
| 0.06 | B10 |
| 0.095 | B11 |
| 0.04 | B12 |
| 0.055 | B13 |
